Laboratory results taken from article PMC13457854 (Cell Discovery, 2026).
Each block holds one binder with its values, some of them ahead of it.

Legend:
[1] = target: T1, BTN3A1/BTN3A2 heterodimer (human, UniProt O00481 30-513; P78410 30-334); experiment: AUC; sedimentation velocity, 40,000 rpm, 20 °C, 25 mM HEPES pH 7.4, 150 mM NaCl, 0.02% GDN, absorbance at 280 nm; no HMBPP (3A2 complex also with 40 μM HMBPP: less of the high-mass species); conditions: both partners purified
T1 construct: BTN3A1, human; synthetic signal peptide fused to the N-terminus; BTN3A2, human; copies: 1 + 1

BTN3A1 = target: T2, BTN3A1 (human, UniProt O00481 30-513); experiment: as above; conditions: both partners purified
T2 construct: BTN3A1, human, codon-optimised synthetic cDNA; Construct details are in the Supplementary Information; source: ExpiHEK293F, transfected; purified within the 3A2/3A3 complex (anti-Flag, Strep-Tactin XT, SEC)
T2 sequence (O00481 30-513): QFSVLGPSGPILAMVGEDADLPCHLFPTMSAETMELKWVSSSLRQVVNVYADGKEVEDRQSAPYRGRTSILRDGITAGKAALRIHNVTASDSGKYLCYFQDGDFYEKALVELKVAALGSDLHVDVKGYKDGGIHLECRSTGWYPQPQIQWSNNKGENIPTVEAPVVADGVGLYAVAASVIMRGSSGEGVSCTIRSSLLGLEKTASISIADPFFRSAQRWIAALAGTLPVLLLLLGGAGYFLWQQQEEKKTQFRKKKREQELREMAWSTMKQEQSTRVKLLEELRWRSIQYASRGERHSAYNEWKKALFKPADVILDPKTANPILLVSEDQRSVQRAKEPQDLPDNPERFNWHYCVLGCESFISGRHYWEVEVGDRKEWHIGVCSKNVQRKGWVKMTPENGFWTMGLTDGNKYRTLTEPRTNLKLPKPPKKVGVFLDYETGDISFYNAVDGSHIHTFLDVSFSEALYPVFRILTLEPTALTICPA

binding result [1]: binds
B1: BTN2A1 (natural protein, human, UniProt Q7KYR7 29-527, looked up)
chain: QFIVVGPTDPILATVGENTTLRCHLSPEKNAEDMEVRWFRSQFSPAVFVYKGGRERTEEQMEEYRGRTTFVSKDISRGSVALVIHNITAQENGTYRCYFQEGRSYDEAILHLVVAGLGSKPLISMRGHEDGGIRLECISRGWYPKPLTVWRDPYGGVAPALKEVSMPDADGLFMVTTAVIIRDKSVRNMSCSINNTLLGQKKESVIFIPESFMPSVSPCAVALPIIVVILMIPIAVCIYWINKLQKEKKILSGEKEFERETREIALKELEKERVQKEEELQVKEKLQEELRWRRTFLHAVDVVLDPDTAHPDLFLSEDRRSVRRCPFRHLGESVPDNPERFDSQPCVLGRESFASGKHYWEVEVENVIEWTVGVCRDSVERKGEVLLIPQNGFWTLEMHKGQYRAVSSPDRILPLKESLCRVGVFLDYEAGDVSFYNMRDRSHIYTCPRSAFSVPVRPFFRLGCEDSPIFICPALTGANGVTVPEEGLTLHRVGTHQSL
notes: BTN2A1, human, codon-optimised synthetic cDNA; construct details are in the Supplementary Information; also called BTN2A1 homodimer; BTN2A1 dimer; source: ExpiHEK293F, transfected; purified within the 3A2/3A3 complex (anti-Flag, Strep-Tactin XT, SEC)

binding result (BTN3A1): binds
B2: BTN3A2 (natural protein)
chain: not shown
notes: BTN3A2, human, codon-optimised synthetic cDNA; Construct details are in the Supplementary Information; source: ExpiHEK293F, transfected; purified within the 3A2 complex (anti-Flag, Strep-Tactin XT, SEC)
